# Assay results published in the DeepSol protein solubility set.
# Assay: soluble on expression in E. coli; label from the status in PepcDB or PDB records
row,Sequence,soluble on expression in E. coli
1,MSLQVSQYLYQNAQSIWGDCISHPFVQGIGRGTLERDKFRFYIIQDYLFLLEYAKVFALGVVKACDEAVMREFSNAIQDILNNEMSIHNHYIRELQITQKELQNACPTLANKSYTSYMLAEGFKGSIKEVAVAVLACGWSYLVIAQNLSQIPNALEDAFYGHWIKGYSSKEFQACVTWNINLLDSLALASSKQEIEKLKEIFIATSEYEYQFWDMAYQSEGGSHHHHHH,soluble
2,MWLDRRGWLRVLGHWRYDLRRPSFTRTWSGDKGPMAETVSTQVGTEGGLRASHQQNGDAGGDAKVELSPGPPKPAGREVEPAPVGGEHPSAAAPGPGKHKKRRGATRERVVPPPKKRRTGVSFGDEHFAETSYYFEGGLRKVRPYYFDFRTYCKGRWVGHSLLHVFSTEFRAQPLAYYEAAVRAGRLQLNEKPVQDLNIVLKDNDFLRNTVHRHEPPVTAEPIRLLAENEDVVVVDKPSSIPVHPCGRFRHNTVIFILGKEHQLKELHPLHRLDRLTSGVLMFAKTAAVSERIHEQVRDRQLEKEYVCRVEGEFPTEEVTCKEPILVVSYKVGVCRVDPRGKPCETVFQRLSYNGQSSVVRCRPLTGRTHQIRVHLQFLGHPILNDPIYNSVAWGPSRGRGGYIPKTNEELLRDLVAEHQAKQSLDVLDLCEGDLSPGLTDSTAPSSELGKDDLEELAAAAQKMEEVAEAAPQELDTIALASEKAVETDVMNQETDPLCAECRLVRQDPLPQDLVMFLHALRYKGPGFEYFSPMPAWAQDDWQKD,soluble
3,MEYFNVGKIVNTQGLQGEMRVLSVSDFAEERFKKGSQLALFDDKDRFVQEVTIVSHRKQKHFDIIKFKDMYHINAIEKYKGYTLKVSKDNQGDLQEGEFYYHQIIGMAVYEKDVLIGHVKEILQPGANDVWIVKRQGKRDLLLPYIPPVVLNVDVPNKRVDVELMEGLDDED,not soluble
4,MGLKDWIEAPAAAVVPAKRSKLNWLRGAAARLTTPLLPDDYLHLANPLWSARELRGQIVEVRAETADSATIVIKPGWGFDFDYEPGQYIGIGLHIDGRWHWRSYSLTSPPNWDDKLISIAVKAMPEGFLSSHLVNGVPSGTIVRLATPTGNFALPDPPPERILFLTAGSGITPVMAMLRTMNRRGQLPDVFHVHSAPTDADVMFADELTQLHEEHDDFRCKIQLTRSQGKFALSSLDEVCPDWRERQTWACGPLPMLDEIETLWRDEGIENKLHLERFAVSRADTSGEGGTVTFAKADKTVSVDGATTLLEAGEQVGALMPFGCRMGICQTCVVPILAGHAIDLRSGKQHAEGDRVQTCISAAAGDCTLDA,not soluble
5,MIDFGNFYSLIAKNHLSHWLETLPAQIANWQREQQHGLFKQWSNAVEFLPEIKPYRLDLLHSVTAESEEPLSAGQIKRIETLMRNLMPWRKGPFSLYGVNIDTEWRSDWKWDRVMPHLSDLTGRTILDVGCGSGYHMWRMIGAGAHLAVGIDPTQLFLCQFEAVRKLLGNDQRAHLLPLGIEQLPALKAFDTVFSMGVLYHRRSPLEHLWQLKDQLVNEGELVLETLVIDGDENTVLVPGDRYAQMRNVYFIPSALALKNWLKKCGFVDIRIADVSVTTTEEQRRTEWMVTESLADFLDPHDPGKTVEGYPAPKRAVLIARKP,not soluble
6,MAEDYKLIDNEEKHRYEFQIDDKIAKIDYIKSNNGEIYLVHTEVPASLGGRGVGSQLAEKTLADIERQGLRLVPLCPFVAGYIHKHPEWKRIVMRGIHIK,not soluble
7,MATSKLQAIWNHPAGPKTIHFWAPTFKWGISIANIADFAKPPEKLSYPQQIAVTCTGVIWSRYSMVINPKNWNLFSVNVAMAGTGIYQLARKIKHDYATEAEPAVASE,soluble
8,MREYKVVVLGSGGVGKSALTVQFVTGTFIEKYDPTIEDFYRKEIEVDSSPSVLEILDTAGTEQFASMRDLYIKNGQGFILVYSLVNQQSFQDIKPMRDQIVRVKRYEKVPLILVGNKVDLEPEREVMSSEGRALAQEWGCPFMETSAKSKSMVDELFAEIVRQMNYSSLPEKQDQCCTTCVVQ,not soluble
9,MSLKLRARLPRGLADRGPAEIAATRAMVEKIREVYERYGFEPVETPAFEYTDALGKFLPDQDRPNEGVFSLQDDDEQWISLRYDLTAPLARYVAENFDQLPKPHRSYRFGWVFRNEKPGPGRFRQFMQFDADTVGAPTAAADAEMCMMAADTMEALGIPRGSYVVKVNNRKVLDGVLESIGLGGDENAGRRLTVLRAIDKSDKFAPEEIKKLLGPGRWDGGEEGKGDFTKGAMLSDDQSELILRATSPSFIAGRFNADGSGGISNIDTVELLRSTADNETLKQGCDELAVIADLLDACGYGATSANPDVRVVIDPSVVRGLEYYTGPVYEVELLLDTKDEKGRPVRFGSVGGGGRYDGLVSRFRGEPVPATGFSIGVSRLQAALTLIGQLGNKPQAGPVVVTVFGGEIAGYQKMVATLRKAGIRAELYLGNPKHSLGQQMKYADKRNSPCAIIQGSDEKQQGIVQIKDLILGAELASLEKDRDEYLKKQAEAQFSEGHHHHHH,not soluble
10,MSLTASSSEEKADKSQELVIYSNSVSNGRGDWLTAKAKEAGFNIKMVDIAGAQLADRVIAEKNNAVADMVFGIGAVDSNKIRDQKLLVQYKPKWLDKIDQSLSDKDNYYNPVIVQPLVLIGAPDVKEMPKDWTELGSKYKGKYSIYGLQGGTGRAILASILVRYLDEKGDLGVSEKGWEVAKEYFANAYTLQKGESSVVKALDKESPIQYGMIWGSGALIGQKEQNVEFKVMTPEIGVPFVTEQTMVLSTSKKQALAKEFIDWFGQSEIQVEYSKKFGSIPANKDALKELPEDTKKFVDQVKPQNIDWEAVGKHLDEWVEKAELEYVKEGHHHHHH,soluble
11,MGSDKIHHHHHHQTDTSDERATDSTTAEVTIIYNDERDPLEGFNRAMWDFNYQFLDKYFYRPVAHGYNDILPRPVKTGVNNFVLNFEEPSSMVNNALQGKWGWAANAGGRFTINTTIGLLGVIDVADMMGLQRKQDEFNEVLGYYGVPNGPYFMAPFLGPYVTRELASDWVDGLYFPLSELTMWQSLAKWGLKNLHRRASAIDQERLVDNALDPYTFVKEAYFQHLDYKVYDGDIPVSTDDDELLDEYMTELD,not soluble
12,SDLGAITKYSALHAKPNGLILQYGTAGFRTKAEHLDHVMFRMGLLAVLRSKQTKSTIGVMVTASHNPEEDNGVKLVDPLGEMLAPSWEEHATCLANAEEQDMQRVLIDISEKEAVNLQQDAFVVIGRDTRPSSEKLSQSVIDGVTVLGGQFHDYGLLTTPQLHYMVYCRNTGGRYGKATIEGYYQKLSKAFVELTKQASCSGDEYRSLKVDCANGIGALKLREMEHYFSQGLSVQLFNDGSKGKLNHLCGADFVKSHQKPPQGMEIKSNERCCSFDGDADRIVYYYHDADGHFHLIDGDKIATLISSFLKELLVEIGESLNIGVVQTAYANGSSTRYLEEVMKVPVYCTKTGVKHLHHKAQEFDIGVYFEANGHGTALFSTAVEMKIKQSAEQLEDKKRKAAKMLENIIDLFNQAAGDAISDMLVIEAILALKGLTVQQWDALYTDLPNRQLKVQVADRRVISTTNAERQAVTPPGLQEAINDLVKKYKLSRAFVRPSGTEDVVRVYAEADSQESADHLAHEVSLAVFQLAGGIGERPQPGF,not soluble
13,MAGDPMGGAGLDNAQNVRNQTQNQTKPIHVSDRNEAFNRHNENEQFGYVRYQKEQFDGEQQKTPVMNREETAHMISSLTVQLPHIQDAATLVTDREALVVYKTDSKNRELTADQVKKTAASVIPRYYHVYISDNPNHMQSVENYSNLGSGSRDIREIMSGTIQEMKTSPQGSPVSENENANGETRQDMKIDRNDKNARLEHHHHHH,soluble
14,MGSDKIHHHHHHMAVSSLAGLGLRREMLAEFSQSVPAQIDFFEVAPENWMALGGKYGKQFRALTERHAFFCHGLSLSIGSSAPLDIDFIKGIKAFLDLHGIAVYSEHLSYCSGSGHLYDLMPMPFTPEAVRHIAGRVKQVEDIIERPLILENISFYAAPGAQMTELEFVLAVLEEADCQLLLDVNNIYVNSINHNYDAAAYLAAMPTERIRYLHVAGHYVEAPDLIVDTHGADIVDPVWQLLCDCYALHGPLPTLLERDFNIPPIGELLQEIDRIRDYQAAAIRTSRRAG,not soluble
15,MGLIEDKALVEAALFVAGRPLSLKELSKALGIKSLDYLEKLIELIASEYAERKSAIEIVKVAGDKWVMQVKQEYSQRVIPLMPKPELSTGELKTLALIAYLQPVEQSKIVKLRGSQAYEHIRKLLEMGLIYAEPYERTRLLGTTEKFAELYGFPENDPMLIKETFKKVIHAEYSDLMKKIEESEKKKE,soluble
